Source: publication PMC117612 (Molecular Biology of the Cell, 2002)

Molecular target: the molecule itself
Assay: SDS-PAGE under nonreducing and reducing conditions with Western blot

B1: murine TSP2 secreted by dermal fibroblasts (conditioned medium) (natural protein)
chain: not shown
stoichiometry N: 3
